Assay results taken from patent publication US20140039042, “BISPECIFIC APTAMERS MEDIATING TUMOUR CELL LYSIS” (MERCK PATENT GMBH, published 2014).

Key:
c-Met Fc fusion [1] = target: T1, c-Met Fc fusion (UniProt P08581 P08581:25-932); experiment: filter; 91±40 pM, n=3, dot blot; heading cites SEQ ID NO 53 but CLN0003 is SEQ 52; conditions: tags: Fc-His fusion; chain copies: 2
[2] = target: T2, CD16α (FcγRIIIa) V158 allotype, CD16α-6His (UniProt P08637 P08637:17-208); experiment: filter; dot blot; allotype not specified for this assay; conditions: tags: 6His
T2 sequence (P08637 17-208, one chain of several): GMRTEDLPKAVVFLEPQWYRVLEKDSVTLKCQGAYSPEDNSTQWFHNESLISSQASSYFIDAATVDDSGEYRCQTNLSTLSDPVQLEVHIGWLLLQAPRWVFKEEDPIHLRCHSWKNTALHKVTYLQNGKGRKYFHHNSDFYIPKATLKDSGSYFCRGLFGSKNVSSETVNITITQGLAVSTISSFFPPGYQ

c-Met Fc fusion [3] = target: T1, c-Met Fc fusion; experiment: filter; dot blot; picomolar; conditions: tags: Fc-His fusion; chain copies: 2
c-Met Fc fusion [4] = target: T1, c-Met Fc fusion; experiment: filter; dot blot; conditions: tags: Fc-His fusion; chain copies: 2
CD16β (FcγRIIIb) = CD16β (FcγRIIIb) (UniProt O75015 O75015:17-200); experiment: filter; dot blot; conditions: tags: 10His
Chain of CD16β (FcγRIIIb) (O75015 17-200, one chain of several): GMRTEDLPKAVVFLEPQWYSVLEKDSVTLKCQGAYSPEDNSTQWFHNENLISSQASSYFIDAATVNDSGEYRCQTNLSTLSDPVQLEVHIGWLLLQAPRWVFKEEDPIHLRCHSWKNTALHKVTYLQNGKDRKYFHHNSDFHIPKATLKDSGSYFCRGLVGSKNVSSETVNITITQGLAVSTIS

[5] = target: T2, CD16α (FcγRIIIa) V158 allotype, …; experiment: filter; dot blot; conditions: tags: 6His
c-Met Fc fusion [6] = target: T1, c-Met Fc fusion; experiment: filter; picomolar Kd, number only in figure; conditions: tags: Fc-His fusion; chain copies: 2
c-Met Fc fusion [7] = target: T1, c-Met Fc fusion; experiment: filter; picomolar Kd, number only in figure; EMSA also shows binding; conditions: tags: Fc-His fusion; chain copies: 2
c-Met Fc fusion [8] = target: T1, c-Met Fc fusion; experiment: filter; c-Met aptamer at 3' end performed best; dot blot; conditions: tags: Fc-His fusion; chain copies: 2
c-Met Fc fusion [9] = target: T1, c-Met Fc fusion; experiment: filter; 11±6 nM, n=6, dot blot; FIG. 2 legend gives 57 nM; heading cites SEQ ID NO 54 but CLN0004 is SEQ 53; conditions: tags: Fc-His fusion; chain copies: 2
[10] = target: T2, CD16α (FcγRIIIa) V158 allotype, …; experiment: filter; 45±28 nM, n=10, dot blot; conditions: tags: 6His
[11] = target: T2, CD16α (FcγRIIIa) V158 allotype, …; experiment: filter; 38±26 nM, n=4, dot blot; broad unspecific cell binding in FACS; conditions: tags: 6His
c-Met Fc fusion [12] = target: T1, c-Met Fc fusion; experiment: filter; nearly similar affinity as full length; conditions: tags: Fc-His fusion; chain copies: 2
c-Met Fc fusion [13] = target: T1, c-Met Fc fusion; experiment: filter; complete loss of binding, dot blot; conditions: tags: Fc-His fusion; chain copies: 2

T1 sequence (P08581 25-932, one chain of several): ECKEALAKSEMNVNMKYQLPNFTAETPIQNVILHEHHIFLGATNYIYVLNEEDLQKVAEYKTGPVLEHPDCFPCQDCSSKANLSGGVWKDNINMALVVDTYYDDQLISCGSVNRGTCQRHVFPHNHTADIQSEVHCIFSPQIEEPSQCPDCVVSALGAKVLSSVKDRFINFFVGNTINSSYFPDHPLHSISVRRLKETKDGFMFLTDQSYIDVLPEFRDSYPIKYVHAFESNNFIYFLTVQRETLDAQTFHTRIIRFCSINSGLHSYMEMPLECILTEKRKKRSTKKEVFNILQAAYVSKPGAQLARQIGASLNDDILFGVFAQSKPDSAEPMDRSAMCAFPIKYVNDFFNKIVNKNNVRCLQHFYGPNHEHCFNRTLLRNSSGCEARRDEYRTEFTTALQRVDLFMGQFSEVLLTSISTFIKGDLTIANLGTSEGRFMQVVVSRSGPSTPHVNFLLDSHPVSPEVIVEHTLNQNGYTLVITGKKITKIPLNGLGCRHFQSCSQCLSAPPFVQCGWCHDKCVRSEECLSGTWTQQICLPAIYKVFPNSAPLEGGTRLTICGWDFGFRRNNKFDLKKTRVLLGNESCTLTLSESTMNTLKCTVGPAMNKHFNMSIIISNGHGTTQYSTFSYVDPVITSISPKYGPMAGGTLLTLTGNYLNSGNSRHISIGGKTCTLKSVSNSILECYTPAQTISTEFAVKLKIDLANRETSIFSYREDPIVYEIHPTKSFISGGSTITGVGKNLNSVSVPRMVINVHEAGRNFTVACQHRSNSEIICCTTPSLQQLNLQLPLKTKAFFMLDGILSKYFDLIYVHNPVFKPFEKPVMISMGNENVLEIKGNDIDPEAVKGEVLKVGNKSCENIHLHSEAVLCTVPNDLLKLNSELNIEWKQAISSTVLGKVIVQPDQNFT

B1: CLN0003 (ssDNA)
DNA: GGAGGGAAAAGTTATCAGGCTGGATGGTAGCTCGGTCGGGGTGGGTGGGTTGGCAAGTCTGATTAGTTTTGGAGTACTCGCTCC
In the case of B1, the Kd (c-Met Fc fusion [1]) is reported as 0.091 nM.

B2: bsA17 (ssDNA)
DNA: CCACTGCGGGGGTCTATACGTGAGGAAGAAGTGGGCAGGTCGGAGGGAAAAGTTATCAGGCTGGATGGTAGCTCGGTCGGGGTGGGTGGGTTGGCAAGTCTGATTAGTTTTGGAGTACTCGCTCC
B2 gave a Kd [2] of 19 nM and a Kd (c-Met Fc fusion [3]) of 0.352 nM.

In the case of CCACTGCGGGGGTCTATACGTGAGGAAGAAGTGG (ssDNA) [-19CLN0020-31 (34mer, MS3)], the Kd [2] is reported as 47 nM.

B3: bsA31 (ssDNA)
DNA: CCACTGCGGGGGTCTATACGTGAGGAAGAAGTGGGCAGGTCAAAAAAAAAAAAAAAGAGTGCGTAATGGTACGATTTGGGAAGTGGCTTGGGGTGGGATTAGTTTTGGAGTACTCGCTCC
For B3, the Kd (c-Met Fc fusion [4]) was 92 nM and the Kd [2] was 24 nM.

B4: bsA15 (ssDNA)
DNA: GGAGGGAAAAGTTATCAGGCAGAGGGGAGGGTCGGGTATCGGCGTGTTCGGGGGATCTGCGATTAGTTTTGGAGTACTCGCTCCGGAGGGAAAAGTTATCAGGCTGGATGGTAGCTCGGTCGGGGTGGGTGGGTTGGCAAGTCTGATTAGTTTTGGAGTACTCGCTCC
With B4 the Kd [2] was 174 nM.

B5: bsA16 (ssDNA)
DNA: GAGTGCGTAATGGTACGATTTGGGAAGTGGCTTGGGGTGGGATTAGTTTTGGAGTACTCGCTCCGGAGGGAAAAGTTATCAGGCAGAGGGGAGGGTCGGGTATCGGCGTGTTCGGGGGATCTGCGATTAGTTTTGGAGTACTCGCTCC
In the case of B5, the Kd [2] is reported as 178 nM.

B6: CLN0123 (ssDNA)
DNA: GGAGGGAAAAGTTATCAGGCAGAGGGGAGGGTCGGGTATCGGCGTGTTCGGGGGATCTGCGATTAGTTTTGGAGTACTCGCTCC
B6 was tested, and the binding result (CD16β (FcγRIIIb)) was “no binding” and the Kd [5] was 231 nM.

B7: bsA9 (ssDNA)
DNA: GGAGGGAAAAGTTATCAGGCCACTGCGGGGGTCTATACGTGAGGAAGAAGTGGGCAGGTCGATTAGTTTTGGAGTACTCGCTCCGGAGGGAAAAGTTATCAGGCTGGATGGTAGCTCGGTCGGGGTGGGTGGGTTGGCAAGTCTGATTAGTTTTGGAGTACTCGCTCC
B7: binds (c-Met Fc fusion [6]).

B8: bsA10 (ssDNA)
DNA: GGAGGGAAAAGTTATCAGGCTGGATGGTAGCTCGGTCGGGGTGGGTGGGTTGGCAAGTCTGATTAGTTTTGGAGTACTCGCTCCGGAGGGAAAAGTTATCAGGCCACTGCGGGGGTCTATACGTGAGGAAGAAGTGGGCAGGTCGATTAGTTTTGGAGTACTCGCTCC
B8: binds (c-Met Fc fusion [6]).

B9: bsA11 (ssDNA)
DNA: CCACTGCGGGGGTCTATACGTGAGGAAGAAGTGGGCAGGTCGATTAGTTTTGGAGTACTCGCTCCGGAGGGAAAAGTTATCAGGCTGGATGGTAGCTCGGTCGGGGTGGGTGGGTTGGCAAGTCTGATTAGTTTTGGAGTACTCGCTCC
B9: binds (c-Met Fc fusion [7]).

B10: bsA21 (ssDNA)
DNA: CCACTGCGGGGGTCTATACGTGAGGAAGAAGTGGGCAGGTCAAAAAAAAAAAAAAAGGAGGGAAAAGTTATCAGGCTGGATGGTAGCTCGGTCGGGGTGGGTGGGTTGGCAAGTCTGATTAGTTTTGGAGTACTCGCTCC
B10: binds (c-Met Fc fusion [6]).

B11: bsA22 (ssDNA)
DNA: CCACTGCGGGGGTCTATACGTGAGGAAGAAGTGGAAAAAAAAAAAAAAAGGAGGGAAAAGTTATCAGGCTGGATGGTAGCTCGGTCGGGGTGGGTGGGTTGGCAAGTCTGATTAGTTTTGGAGTACTCGCTCC
B11: binds (c-Met Fc fusion [7]).

B12: bsA20 (ssDNA)
DNA: CCACTGCGGGGGTCTATACGTGAGGAAGAAGTGGGCAGGTCGGAGGGAAAAGTTATCAGGCTGGATGGTAGCTCGGTCGGGGTGGGTGGGTTGGCAAGTCT
With B12 the Kd (c-Met Fc fusion [4]) was 5 nM.

B13: bsA3 (ssDNA)
DNA: CCACTGCGGGGGTCTATACGTGAGGAAGAAGTGGGCAGGTCAAAAAAAAAAAAAAAGAGTGCGTAATGGTACGATTTGGGAAGTGGCTTGGGGTGGG
B13: binds (c-Met Fc fusion [8]).

B14: bsA18 (ssDNA)
DNA: CCACTGCGGGGGTCTATACGTGAGGAAGAAGTGGGCAGGTCATCAGGCGAGTGCGTAATGGTACGATTTGGGAAGTGGCTTGGGGTGGGATTAGTTTTGGAGTACTC
B14: binds (c-Met Fc fusion [8]).

B15: bsA19 (ssDNA)
DNA: CCACTGCGGGGGTCTATACGTGAGGAAGAAGTGGGCAGGTCAAAAAAAAAAAAAAAGGAGGGAAAAGTTATCAGGCTGGATGGTAGCTCGGTCGGGGTGGGTGGGTTGGCAAGTCT
B15: binds (c-Met Fc fusion [8]).

B16: CLN0004 (ssDNA)
DNA: GGAGGGAAAAGTTATCAGGCGAGTGCGTAATGGTACGATTTGGGAAGTGGCTTGGGGTGGGATTAGTTTTGGAGTACTCGCTCC
With B16 the Kd (c-Met Fc fusion [9]) was 11 nM.

B17: bsA12 (ssDNA)
DNA: CCACTGCGGGGGTCTATACGTGAGGAAGAAGTGGGCAGGTCGATTAGTTTTGGAGTACTCGCTCCGGAGGGAAAAGTTATCAGGCGAGTGCGTAATGGTACGATTTGGGAAGTGGCTTGGGGTGGGATTAGTTTTGGAGTACTC
In the case of B17, the Kd (c-Met Fc fusion [4]) is reported as 18 nM.

B18: CLN0020 (ssDNA)
DNA: GGAGGGAAAAGTTATCAGGCCACTGCGGGGGTCTATACGTGAGGAAGAAGTGGGCAGGTCGATTAGTTTTGGAGTACTCGCTCC
For B18, the binding result (CD16β (FcγRIIIb)) was “no binding” and the Kd [10] was 45 nM.

B19: CLN0018 (ssDNA)
DNA: GGAGGGAAAAGTTATCAGGCATCACGTGGTGGGCAAATAACCGGTTGGGGTGGGTCGAGGGATTAGTTTTGGAGTACTCGCTCC
With B19 the binding result (CD16β (FcγRIIIb)) was “no binding” and the Kd [11] was 38 nM.

B20: bsA13 (ssDNA)
DNA: GAGTGCGTAATGGTACGATTTGGGAAGTGGCTTGGGGTGGGATTAGTTTTGGAGTACTCGCTCCGGAGGGAAAAGTTATCAGGCCACTGCGGGGGTCTATACGTGAGGAAGAAGTGG
With B20 the Kd (c-Met Fc fusion [4]) was 18 nM.

GAGTGCGTAATGGTACGATTTGGGAAGTGGCTTGGGGTGGG (ssDNA) [-20CLN0004-23 (41mer, MS2, with G61)]: binds (c-Met Fc fusion [12]).

GAGTGCGTAATGGTACGATTTGGGAAGTGGCTTGGGGTGG (ssDNA) [CLN0004 without flanking sequences]: no binding (c-Met Fc fusion [13]).
